Measured values published in a protein production outcome set (Wang et al. 2014).

Test: label from the status in PepcDB records

Row | Sequence | protein production
1 | MVDELFCPQCGMLKRRCKCRKRSIRQRNLELLKKVGYKEFLLPLFDTDDEIVLYKVLRPFREKPTEELDFLPSELASCLRKRGIGRLYPFQKEAMIRLMEGRDVVITAPTGFGKTEAFAVPMLWRALHGGKAMVFYPTKALARDQEEKIKFYTSSLGLRAVRFDGDSGREERRAVLSGKCDIILTNPDMVDYHLRNTPAFRRICRELSFIAVDELHTYTGVLGSNMHYLVKRLSRFAEFQIACASATLSNAAEFAEELFDRDFVLVSGEHRKGTLHLIFRYTPSLYSAVREIVTALRNRKIIVFGNSYKSVETINLILRRHGLKSAIHKSGLPKEVREEVEAKFKRGEINIVVSTPTLELGVDIGDVDVVVSELVPYGQMIQRVGRAGRKGQESVGVVILREDDSISTYYRTKPEDYFKEEANGYVERHNEEVMKFQLISMCIEKPVRLEELDRQSAEIMQKLQAQGIVVEREGAFHPTAKAIELSRAFSFRGIGDAVKIYHDGKYIGERALPIAVKELFPGSILVHNGVRYRTVELDLKRLRAEVVELDYGNEITDPLYMTIPRIIEVEDEIEEPVNAVYCSIEINYLVHGYIERDVFDRERKAFHYLDEPVSYTFKTKGFLFSAPFPDPADYEDYYAGSFHALEHVIIETTDAITGGGSREMGGISVPEGDIFVYDASVGGSGLSKLLFKRLRRAFEISKTILESCDCGRVDGCPKCTYSYQCGNNNQPLNRIGALNIAEKVIKGVKRKTDWRKYTDVIEIRYFPLEHHHHHH | failed
2 | MSTQENVQIVKDFFAAMGRGDKKGLLAVSAEDIEWIIPGEWPLAGTHRGHAALAALLQKASEMVEISYPEPPEFVAQGERVLVVGFATGRVKSTNRTFEDDWVFAITVRKSKVTSIREYIDTLALARATNFNAT | not failed
3 | ERATPPVEPRQPPEAQPAERIVAERIVQELVRAGANLNNVRTMLRNVMDNNAVAFSRVEWNILLQHFPDMHTNGISSDSVLANELRQTLRQVVHQQRTQRALAPILSPAPSRPVASSSRSSQRTLLGRFTGWMAPRQTSSSSQAT | failed
4 | LRSRRKPSSRIGRRPSTTQDRISTVGIELFTEQGFDATSVDEVAEASGIARRTLFRYFPSKNAIPWGDFDAHLAEMRAQLAAQPDDIPIVDGLTAALLQFNAFPASEEINHRKRMGLILRVPALQAYSVVMYEGWRNVIAEYVASRLGTSPTDHVPRTVGYLLLGVAMSAYEQWLDDDSLELNELLASGMQSLYDGLSSLGEPDTRT | not failed
5 | MKKLGFVLFMSMFAFVSVVPAAEAKVIDHDKVQGFSEVTPVTVSQKAAKRFQPYLKVASGCVPFPAVDAQGNTSGGLEPTGAPEGHCSKSVGQVYSRSAWYNGVWAIMYAWYFPKDSPLPLKAFGHRHDWEGIVVWIDNPANQNPKVLSIAYSQHGKFQKTAPNNNIMEGDHPKIRYDAPQPPINHSLYVDSAKGGTQPLIGWEDLTPAARNALNTTDFGSANVPFNDHNFTNNLGKAWFR | failed
6 | MGHHHHHHSHSGNIRLETAAETQAFAEELGRHLEAGDVIILDGPLGAGKTTFTQGLARGLNVKGRVTSPTFVIAREHKSLSGGPSLVHVDAYRLIDDAAGATDPIGALDSLDLETELEDAVVVAEWGGGLVEQITDSYLLITFDRT | not failed
7 | MQHHKVAIIGAGAAGIGMAITLKDFGITDVIILEKGTVGHSFKHWPKSTRTITPSFTSNGFGMPDMNAISMDTSPAFTFNEEHISGETYAEYLQVVANHYELNIFENTVVTNISADDAYYTIATTTETYHADYIFVATGDYNFPKKPFKYGIHYSEIEDFDNFNKGQYVVIGGNESGFDAAYQLAKNGSDIALYTSTTGLNDPDADPSVRLSPYTRQRLGNVIKQGARIEMNVHYTVKDIDFNNGQYHISFDSGQSVHTPHEPILATGFDATKNPIVQQLFVTTNQDIKLTTHDESTRYPNIFMIGATVENDNAKLCYIYKFRARFAVLAHLLTQREGLPAKQEVIENYQKNQMYLDDYSCCEVSCTC | not failed
8 | MTRTFDPIREMDRLLSDVTRTPATVAVPMDLYREGDDYTVAVDLPGVDPASIDIDVDDRTLTIRAERAAKVAKEAQWLSRERAMGTFARQLTLGHGLATDRITAEYTDGVLTLTIPVAETAKPRKVEVRHGSTTIDAMTDQAQVGSGEHQEQ | failed
9 | MTKVLILGANGRIARIVEQRLLAETDVQLTLVLRNAGRLLVTSPERETVIQGDVSDSQLLDTVMPNQDIVYANLAGNMALLAQTIITSMNRNHVPHLIWVTGSGLYHETPNPFGAWVEQVVGHAAKNDTRHAARIIESSDIPATIIRAAYMTDDTKIDYELTYKGERFKGTMISRASIADLIMKIIAEPTAYENTSLGIAQPGTDNMLPQVKLMAQHR | failed
10 | MEEENNLNSKDTQNTFLKGSAWMTFGSIASRILGALYIIPWYAWMGQYGNIANALTARSYNIYTIFILISTAGIPGAIAKQVAKYNALNEYGIGRRLFHKGLILMAILGVVSAAIMYFASPLLASNGSQSDPRQIAVMRSLSYAILIIPILSIMRGYFQGYADMMPSAMSQFVEQFARVVWMLLTAFVIMQVQHGSYVHAVIQSNLAAAVGAAFGIGLLVWFLFSRRKQLDYLVANSNNRLRVSTTELFAEIIEQAIPFIIIDSGITLFSLVDQYTFHPMIAGLVHASSDAIEDWYALFGLNANKLIMIIVSLASAMAVTAIPLLSAAHTRGDYKSISRQIANTMDLFLFVMIPAAFGMAAISRPIYTVFYGPDQLGSNVLYLSAFTAISLGLFTVLMAILQGLSENGLAIKYLVLGLILKGILQYPMIFLFKIYGPLVATNLGLLVIVLLSLKHLEVQYNFNLNRTSRRLVGITAFSIGMFIIVKLVEMGLGKFLSPDRRISALILVIVAVSIGIIFYGFAALKTDLAQKIMGSKIESILVRLRIHD | failed
11 | PKLTRVDIAHDDFEGKHISVDWGNMQDGLGGFQLGNRAPNIEHKGNWRRPNGKGRTLCIGSRDSGKYLRLYEKGRAEGDPNDNWQRAEVEFKSIDRVLPFDMLLAPSEFFIAAYPCFRDLAQHLQPERIETISKTAQINFQTAIENLKHQYGKYINIFKEVFEPEELINLISCSDPLAYPKRLDHVLITARRM | failed
12 | MKVYDVTAPIYEGMPVYKNKPEKQPKRTTITNGYVTESRIDMDVHTGTHIDAPLHMVEGGATFETIPLNDLVGPCKLFDLTHVNDRITKDDIAHLDIQEGDFVLFKTKNSFEDAFHFEFIFVAEDAARYLADKQIRGVGIDALGIERAQEGHPTHKTLFSAGVIIIEGLRLKDVPEGRYFMVAAPLKLVGTDAAPARVLLFDREP | not failed
13 | MLKKIREEFGCIFARDPAAQSFFEILTVYPGVHAVLIHRFSHWLWNHGLHWPARVLSYLARWATGIEIHPGATLGRRLFIDHGMGVVIGETAVIGDDCTLYHGVTLGGTSWQKGKRHPTLGNGVVVGAGAKVLGPITVGDGARIGSNSVVLRTVPAGATVVGIPGHIINPDRRAQEAQRLAIASRLGFDAYGMTPDMPDPVAHAINHMLDHIQALDQQVAKLKEVLRERGIDLEEAPLPDLDDCQLDPGEPQVTVNSSRTGLEHHHHHH | not failed
14 | MKIAIVGSGNGAVTAAVDMVDKGHDVRLYCRNESISKFDVALEKGGFDFYNEGEEKFIEFTDISDDMEYVLDGADIVQVIIPSSFIEYYAKVMSKFVTNDHLIFFNIAASMGSIRFMNVLEDRHIDVHPHFAEANTLTYGTRVDFNNAKVDLSLNVRRVFFSTFDRSELNESYEKVSKIYDYLVKEESLLKTNL | failed
15 | MNRIEHYHDWLRDAHAMEKQAESMLESMASRIDNYPELRARIEQHLSETKNQIVQLETILDRNDISRSVIKDSMSKMAALGQSIGGIFPSDEIVKGSISGYVFEQFEIACYTSLLAAAKNAGDTASIPTIEAILNEEKHMADWLIQHIPQTTEKFLIRSETDGVEAKK | not failed
16 | MSKVIFALVLVVVLVACINATYVEFEEAYAPVDCKGQCTTPCEPLTACKEKCAESCETSADKKTCRRNCKKADCEPQDKVCDACRMKCHKACRAANCASECPKHEHKSDTCRACMKTNCK | not failed
17 | MPTATDARGHTVTLDHRPRRILSLVPSQTELLAHLDLADEVVGITRFCERPEHWRSEKAIVGGTKQVDFDTVRDLDPDLVLANHEENTAEDVETLDEIAPVFVTEVKTVEDALGMIRTVGTLTETSDQTSTLVGKIISRFESLPDFTSLRAAYLIWRDPYMTIGNDTFIHDVMHWGGLENAYGDQTRYPDVTIADLAEQDLDVVLCSSEPFPFHEKDAFTADLREALPDTSVEIVDGQPFSWYGPRLLDTPSYLKTLRERLPTPAPRR | failed
18 | MRHLPYPLLGLFLALSSTGAALAGEQYYPLDKGSAPYAVAPSAQGAVWYGADGGHSLGRLDPTSGESVQVPLGEGARPRAIVSDESGNAWVLDSGLNAILRIGGERLGSERFPLPAKAAPAGLESAVFDDDGRLWFTGSRGFHGRLDPARRLVEVWPSPQGKAANGICVTPDGEVWYAQDDALVHVDPLDGSAERLPAPEGTKALRGIGADSIGRLWASDSGGARLYRYDPSDASWQSWPLPDSQARPDSLRVDAMDRVWLHDAASGALLRFDSEQATFRVLPSDRPAPGNALLGGRPGETWSAEPAADRLRVVRD | failed
19 | MQCNICEVRCEINKHSTGRCGTYVSTGNTITQYPGMGYMGAYPISIEEVPLHHFYPSGKFLQIFSKGCNFQCPGCAARMPASSEPSTQQASLSPSEVVKRALKQECLGVVSTLNDPVANYYLFRDLAIQAQEKSLLVGCSTNCYFTSETLEEFGQLVDFVNVGIKGYSDRGYRNCGVTSSAPVFRNISRLFDMGVHVETSIAYSRGNEEDVIKVAEAVSDISPTIPLHVMRFLPFGYAPIELEPSIGEAEKICSDLRRYLDFVYLFNSPGTELLNTYCPECGRLLIEREFHRPFGSRLVKPWLSHKCSCGCSIPVQGKAPTEGFSEAGLMDSYSISQAFSMVHAVLTCLGVLDDYKLMDIWGEDKLMDVWSKVSNPKTLMQIHNMIRQPYSYLEFIKFIAEKANMPEKGEELVSFIHKRLQIVQNLSAGKSSYYVYYCMGSPFFALNAGRMENNLVTFSGGVSINKQLQKEGKLGVSVSPSFINEHNPGVIFVSGFLSRPLDEFYALCQKYGIHADAVTQHRVYEIPPSWDFGSPRWILGLMYITDKLHPGKLEVDLKKEADDFYLQFYGMRFKEARPNRSFHRPSSGIWPHTQTLYNYFEMEVPNQDSTKNFGNEITQPFNILPTCKIKLKE | failed
20 | FSTFDSKYDRFLRGEEKLTDQEELGRVLISSTQFTNCNTCHEIRGAKGLEDGLFTNHKYFNIGVPANTSVRAVNGSKPDAVDLGLAQNPAVAGDPAQRGKFKVPTLRNVAVTGPYMHNGVFKDLRTVVLFYVKYKSKKPSRQINPETGKTWDAPEVPENIAMTELTSAPALDDKRVDAIVAFLKTLTDRRYEHLLPKEDGQTAAPT | failed
21 | SLRREMQEILPGLFLGPYSSAMKSKLPVLQKHGITHIICIRQNIEANFIKPNFQQLFRYLVLDIADNPVENIIRFFPMTKEFIDGSLQMGGKVLVHGNAGISRSAAFVIAYIMETFGMKYRDAFAYVQERRFCINPNAGFVHQLQEYEAIYLAK | not failed
22 | GLNHMTARYLREEHHMFRAAFRKFLEKEAYPHYNDWEKRGIIPRSFWAKMGENGFLCPWVDEKYGGLNADFAYSVVINEELEKVGSSLVGIGLHNDIVTPYIASYGTEEQKQKWLPKCVTGELITAIAMTEPGAGSDLANISTTAVKDGDYYIVNGQKTFITNGIHADLIVVACKTDPQAKPPHRGISLLVVERDTPGFTRGRKLEKVGLHAQDTAELFFQDAKVPAYNLLGEEGKGFYYLMEKLQQERLVVAIAAQTAAEVMFSLTKQYVKQRTAFGKRVSEFQTVQFRLAEMATEIALGRTFVDRVIEEHMAGKQIVTEVSMAKWWITEMAKRVAAEAMQLHGGYGYMEEYEIARRYRDIPVSAIYAGTNEMMKTIIARQLDL | not failed
